Reference: US20050187147A1 (published 2005)
Square brackets hold non-standard residues; d marks the D form. Primed or numbered codes have the meaning given here. * marks the point of attachment. 10Ca = carbamate linkage conjugating the peptide-PEG to paclitaxel at C10; ALK(6) = not defined here; 10Es = not defined here; Cbz = O=C(OCc1ccccc1)*; PEG(13) = PEG13 linker; Piv = CC(C)(C)C(=O)*; OBn = c1ccc(CO*)cc1; PXL = paclitaxel

Target: Human Src kinase (Upstate #14-326) (human, UniProt P12931 1-536)
Experiment: cell-based or functional assay

Q: How did the “Average src kinase activity” value turn out when Cbz-YIYGSFK(Cbz)-{ALK(6)-10Es-PXL} (reading uncertain) [CBz-YIYGSFK(CBz)-ALK(6)-10Es-PXL] was run?
A: 0 % of parent peptide activity

Q: How did the “Average src kinase activity” value turn out when Piv-YIFGSFR-{PEG(13)-10Ca-PXL} [Pv-YIFGSFR-PEG(13)-10Ca-PXL] was run?
A: 0 % of parent peptide activity

Q: Which “Average src kinase activity” value does the source give for Ac-E(OBn)YIYGSFK(Cbz)-{PEG(13)-10Ca-PXL} [Ac-E(Bzl)YIYGSFK(CBz)-PEG(13)-10Ca-PXL] here?
A: 0 % of parent peptide activity

Q: Which “Average src kinase activity” value does the source give for Ac-EYIFGSFK-{PEG(13)-10Ca-PXL} [Ac-EYIFGSFK-PEG(13)-10Ca-PXL] here?
A: 0 % of parent peptide activity

Q: How did the “Average src kinase activity” value turn out when Ac-EYI[dY]GSFK-{PEG(13)-10Ca-PXL} [Ac-EYIyGSFK-PEG(13)-10Ca-PXL] was run?
A: 0 % of parent peptide activity
